Data published in patent US20240033354A1.

Molecular target: TcdB1 holotoxin (recombinant full-length TcdB1, VPI10463 strain, expressed in Bacillus megaterium) (Clostridium difficile, VPI10463 strain) (UniProt P18177)
Experiment: cell-based or functional assay

Question: With Fab fragment of bezlotoxumab as the substance, how does the cell rounding assay on HeLa cells, TcdB1 10 pM, 6 h: reduction of cell-rounding at 2 µM (% reduction of cell-rounding at 2 µM) read?
Answer: The cell rounding assay on HeLa cells, TcdB1 10 pM, 6 h: reduction of cell-rounding at 2 µM (% reduction of cell-rounding at 2 µM) was 40.
